Data set [1] has as its target CsrA-His6 (Escherichia coli) (UniProt P69913). Description: EMSA. Conditions: EMSA: 0.5 nM RNA, 10 mM MgCl2, 100 mM KCl, 32.5 ng yeast RNA, 20 mM DTT, 7.5% glycerol, 4 U SUPERasin, 37 C 30 min (pH not stated), footprint: 2 nM RNA. Background: A gel shift assay detects complexes by their altered migration in electrophoresis.
For data set [2] the target is unchanged. Put plainly: RNase T1 footprinting. Conditions: EMSA: 0.5 nM RNA, 10 mM MgCl2, 100 mM KCl, 32.5 ng yeast RNA, 20 mM DTT, 7.5% glycerol, 4 U SUPERasin, 37 C 30 min (pH not stated), footprint: 2 nM RNA.

CsrA-His6 (Escherichia coli), sequence (P69913 whole entry): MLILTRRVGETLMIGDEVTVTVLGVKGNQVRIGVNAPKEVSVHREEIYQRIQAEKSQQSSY

“GAAGAUCAUCGUCAGAAUUGACUCCACGAUCACAUUUCGGACCGGCAGAAAGGAAUUAUUCUGCAAACAGUAAUUAUGGUGUUUUGAUUUAUCUUGCACCUCUCCACUUCUGGAUAUAAGGAUAUUAGGU [ftnB EMSA transcript]”: the Kd in data set [1] was 13 nM. As for “GGGAUCAUCGUCAGAAUUGACUCCACGAUCACAUUUCGGACCGGCAGAAAGGAAUUAUUCUGCAAACAGUAAUUAUGGUGUUUUGAUUUAUCUUGCACCUCUCCACUUCUGGAUAUAAGGAUAUUAGGUAUGGCAACCGCUGGAAUGCUUCUCAAGGAUCC [ftnB footprint RNA (+1 to +152)]”, in data set [2], the binding entry is on record as “binds”.

In the case of “GGGUGGAAGCGAAGGAGUCAAAAAAUGAAAGGUGAUACUAAAGUUAUAAAUUAUCUCAACAAACUGUUGGGAAAUGAGCUUGU [bfr EMSA transcript]”, the Kd in data set [1] is 27 nM. In the case of bfr EMSA transcript, the Kd in data set [1] (10 mM Mg2+, apparent KD, cooperative equation, single shift) turned out to be 27 nM. In data set [1], ftnB EMSA transcript displayed a Kd of 13 nM.

These data come from paper PMC6686035.
